Laboratory results: patent US20220098315A1 (Novartis, published 2022)

Key:
[1] = target: recombinant human CD40 (human) (UniProt P25942); assay: SPR (Biacore T100), antibody captured on Protein A, CD40 antigen as analyte, 25 C, 1:1 model
human CD40 on cells = human CD40 on cells (human, UniProt P25942 21-277); assay: cell-based or functional assay
Sequence of human CD40 on cells (P25942 21-277 limits assumed): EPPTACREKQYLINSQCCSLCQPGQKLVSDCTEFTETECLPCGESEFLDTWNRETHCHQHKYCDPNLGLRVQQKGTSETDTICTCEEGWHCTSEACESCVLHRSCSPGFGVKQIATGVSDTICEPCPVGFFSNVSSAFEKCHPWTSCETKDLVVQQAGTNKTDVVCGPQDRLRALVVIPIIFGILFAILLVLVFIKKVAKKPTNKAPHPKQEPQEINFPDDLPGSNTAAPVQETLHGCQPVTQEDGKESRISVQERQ

Sequence of recombinant human CD40 (human) (P25942 21-193 limits assumed): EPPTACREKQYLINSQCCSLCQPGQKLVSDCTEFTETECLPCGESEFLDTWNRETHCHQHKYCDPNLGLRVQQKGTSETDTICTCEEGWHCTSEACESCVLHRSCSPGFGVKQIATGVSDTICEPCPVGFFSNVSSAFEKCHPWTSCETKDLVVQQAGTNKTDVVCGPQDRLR

Kd [1] [nM] | koff [1] [s⁻¹] | kon [1] [M⁻¹ s⁻¹] | IC50, rCD154-induced proliferation of human PBMCs (human CD40 on cells) [nM] | Molecule
0.467 | 0.000126 | 284000 | – | HCD122 (antibody)
– | – | – | 0.12 | CFZ533 (antibody, human IgG1, kappa, N297A, V domains shown) VH: QVQLVESGGGVVQPGRSLRLSCAASGFTFSSYGMHWVRQAPGKGLEWVAVISYEESNRYHADSVKGRFTISRDNSKITLYLQMNSLRTEDTAVYYCARDGGIAAPGPDYWGQGTLVTVSS VL: DIVMTQSPLSLTVTPGEPASISCRSSQSLLYSNGYNYLDWYLQKPGQSPQVLISLGSNRASGVPDRFSGSGSGTDFTLKISRVEAEDVGVYYCMQARQTPFTFGPGTKVDIRR
